The source of these data is paper PMC7673785.

For the assay, the target named is RIPK3 (UniProt Q9Y572). The experiment in a line: anti-Flag co-IP, Myc blot. Particulars: reference: wild-type Myc-CSNK1G2; sites S211,T215.

Turning to “CSNK1G2 (from UniProt P78368) S211A/T215A”, the “binding against the reference” value is listed as “lost”.
